Data on 36 variants can be found in the Human Domainome abundance scans (Beltran et al. 2025).

± gives the uncertainty stated by the source.

To fix the notation:
B1: Androgen receptor, residues 557 to 632; numbered along this chain, P10275 (parent)
chain: QKTCLICGDEASGCHYGALTCGSCKVFFKRAAEGKQKYLCASRNDCTIDKFRRKNCPSCRLRKCYEAGMTLGARKL

The data set covers variants of B1. The data set is described as follows: abundance fitness (aPCA) (normalised: wild type 0, dead -1); higher = more abundant; growth selection in yeast, the domain comes from the species named. Conditions: Homo sapiens.
Regarding QKTCLICGDEASGQHYGALTCGSCKVFFKRAAEGKQKYLCASRNDCTIDKFRRKNCPSCRLRKCYEAGMTLGARKL [C14Q], the abundance fitness was -0.133 ± 0.092.

Regarding QKTCLICGDEASGNHYGALTCGSCKVFFKRAAEGKQKYLCASRNDCTIDKFRRKNCPSCRLRKCYEAGMTLGARKL [C14N], the abundance fitness was -0.351 ± 0.26.

Turning to QKTCLICGDEASGCHYGALTCGSCKVFFKRAAEGKQKYLCASRNDCTIDKFRRKNCPSCRLRKGYEAGMTLGARKL [C64G], the abundance fitness was -0.606 ± 0.11.

As to QKTCLICGDEASGCHYGALTCGSCKVFFKRAAEGKQKYLCASRNDCTIDHFRRKNCPSCRLRKCYEAGMTLGARKL [K50H], the abundance fitness is -0.087 ± 0.31.

Turning to QKTCLICGDEASGCHYGALTCGSCKVFFKRAAEGKQKYLCASRNDCTIDGFRRKNCPSCRLRKCYEAGMTLGARKL [K50G], the abundance fitness is -0.146 ± 0.057.

Regarding QKTCLICGDEASGCHYGALTCGSCKVFFKRAAEGKMKYLCASRNDCTIDKFRRKNCPSCRLRKCYEAGMTLGARKL [Q36M], the abundance fitness is -0.084 ± 0.064.

Take QKTCLICGDEASGCHYGALTCGSCKVFFKRAAEGKCKYLCASRNDCTIDKFRRKNCPSCRLRKCYEAGMTLGARKL [Q36C]: the abundance fitness was -0.2 ± 0.091.

With QKTCLICGDEASGCHYGALTCGSCKVFFKRAAEGKRKYLCASRNDCTIDKFRRKNCPSCRLRKCYEAGMTLGARKL [Q36R], the abundance fitness is -0.144 ± 0.051.

As to QKTCLICGDEASGCHYGALTCGSCKVFFKRAAEGKQKYLCASRNACTIDKFRRKNCPSCRLRKCYEAGMTLGARKL [D45A], the abundance fitness is -0.094 ± 0.074.

As for QKTCLICGDEASGCHYGALTCGSCKVFFKRAAEGKQKYLCASRNKCTIDKFRRKNCPSCRLRKCYEAGMTLGARKL [D45K], the abundance fitness was 0.101 ± 0.12.

For the variant QKTCLICGDEASGCHYGALTCGSCKVFFKRAAEGKQKYLCASRNCCTIDKFRRKNCPSCRLRKCYEAGMTLGARKL [D45C], the abundance fitness was -0.325 ± 0.21.

Regarding QKTCLICGDEASGCHYGALTCGSCKVFFKRAAEGHQKYLCASRNDCTIDKFRRKNCPSCRLRKCYEAGMTLGARKL [K35H], the abundance fitness was -0.044 ± 0.075.

In the case of QKTCLICGDEASNCHYGALTCGSCKVFFKRAAEGKQKYLCASRNDCTIDKFRRKNCPSCRLRKCYEAGMTLGARKL [G13N], the abundance fitness is -0.201 ± 0.13.

For the variant QKTCLICGDEASGCHYGALTCGSCKVFFKRAAEGKQKYLCASRNDCTIDKFRRKNCPSCRLRKCYEAGMTLGVRKL [A73V], the abundance fitness was -0.054 ± 0.067.

Consider QKTCLICGDEASGCHYGALTCGSCKVFFKRAAEGKQKYLCASRNDKTIDKFRRKNCPSCRLRKCYEAGMTLGARKL [C46K], for which the abundance fitness is -0.735 ± 0.12.

For QKTCLICGDEASGCHYGALTCGSCKVFFKRAAEGKQKYLCASRNDYTIDKFRRKNCPSCRLRKCYEAGMTLGARKL [C46Y], the abundance fitness was -1.06 ± 0.19.

Turning to QKTCLICGDEASGCHYGALTCGSCKVFFKRAAEGKQKYLCASRNDDTIDKFRRKNCPSCRLRKCYEAGMTLGARKL [C46D], the abundance fitness was -0.495 ± 0.21.

Take QKTCLICGDEASGCHYGALTCGYCKVFFKRAAEGKQKYLCASRNDCTIDKFRRKNCPSCRLRKCYEAGMTLGARKL [S23Y]: the abundance fitness is -0.122 ± 0.057.

In the case of QKTCLICGDEASGCHYGALTCGLCKVFFKRAAEGKQKYLCASRNDCTIDKFRRKNCPSCRLRKCYEAGMTLGARKL [S23L], the abundance fitness is -0.283 ± 0.035.

For the variant QKTCEICGDEASGCHYGALTCGSCKVFFKRAAEGKQKYLCASRNDCTIDKFRRKNCPSCRLRKCYEAGMTLGARKL [L5E], the abundance fitness was -0.071 ± 0.062.

Regarding QKTCLICGDEASGCHYGALTCGSCKVFFKRAAEGKQKYLCASRNDCTIDKFRRKNCPSCRLRKCWEAGMTLGARKL [Y65W], the abundance fitness is -0.044 ± 0.11.

For QKTCLICGDEASGCHYGALTCGSCKVFFKRAAEGKQKYLSASRNDCTIDKFRRKNCPSCRLRKCYEAGMTLGARKL [C40S], the abundance fitness is -0.713 ± 0.086.

Consider QKTCLICGDEASGCHYGALTCGSCKRFFKRAAEGKQKYLCASRNDCTIDKFRRKNCPSCRLRKCYEAGMTLGARKL [V26R], for which the abundance fitness is 0.019 ± 0.026.

As to QKTCLICGDEASGCHYGALTCGSCKVFFKRAAEGKQKYLCASRNDCTIDKFTRKNCPSCRLRKCYEAGMTLGARKL [R52T], the abundance fitness stood at 0.067 ± 0.082.

Take QKTCLICGDEASGCHYGALTCGSCKVFFKRAAEGKQKYLCASRNDCTIDKFGRKNCPSCRLRKCYEAGMTLGARKL [R52G]: the abundance fitness is -0.001 ± 0.069.

Take QKTCLICGDEASGCHYGALTCGSCKVFFKRAAEGKQMYLCASRNDCTIDKFRRKNCPSCRLRKCYEAGMTLGARKL [K37M]: the abundance fitness was -0.131 ± 0.1.

On to QKTCLICGDEASGCHYGALTCGSCKVFFKRAAEGKQKYLCASRNDCTIDKFRRKNCPSCRLRKCYEAGMTLGAAKL [R74A], for which the abundance fitness was -0.119 ± 0.068.

QKTCLICGDEAPGCHYGALTCGSCKVFFKRAAEGKQKYLCASRNDCTIDKFRRKNCPSCRLRKCYEAGMTLGARKL [S12P]: the abundance fitness was -0.077 ± 0.19.

Consider QKTCLICGDEASGCHYGALTCGSCKVFFKRAAEGKQKYLCASRNDCTIDKFRRKNCPNCRLRKCYEAGMTLGARKL [S58N], for which the abundance fitness was -0.189 ± 0.062.

QKTCLICGDEASGCHYGALTCGSCKVFFKRAAEGKQKYLCASRNDCTIDKFRRKNCPECRLRKCYEAGMTLGARKL [S58E]: the abundance fitness came to 0.133 ± 0.12.

For QKTCLICGDEASGCHYGALTCGSCKVFFKRAAEGKQKYLCASRCDCTIDKFRRKNCPSCRLRKCYEAGMTLGARKL [N44C], the abundance fitness was -0.419 ± 0.15.

Take QKTCLICGDEASGCHYGALTCGSCKVFFKRAAEGKQKYLCASRNDCPIDKFRRKNCPSCRLRKCYEAGMTLGARKL [T47P]: the abundance fitness was determined as 0.007 ± 0.035.

As to QKTCLICKDEASGCHYGALTCGSCKVFFKRAAEGKQKYLCASRNDCTIDKFRRKNCPSCRLRKCYEAGMTLGARKL [G8K], the abundance fitness is -0.111 ± 0.076.

On to QKTCLICGDEASGCHYGALTCGSCKVFFKRAAEGKQKYLCASRNDCTIDKFRRKNWPSCRLRKCYEAGMTLGARKL [C56W], for which the abundance fitness is -0.964 ± 0.47.

On to QKTCLICGDEASGCHYGALTCGSTKVFFKRAAEGKQKYLCASRNDCTIDKFRRKNCPSCRLRKCYEAGMTLGARKL [C24T], for which the abundance fitness is -0.902 ± 0.06.

Consider QKTCLICGDEASGCHYGALTCGSCKVFFKRAAEGKQKYLCASRNDCTVDKFRRKNCPSCRLRKCYEAGMTLGARKL [I48V], for which the abundance fitness was -0.02 ± 0.032.
